Data reported in paper PMC4930772, “Crystal structure of a PP2A B56-BubR1 complex and its implications for PP2A substrate recruitment and localization” (Protein & Cell, 2016).

Target: human PP2A B56γ1(30–380) (human, UniProt Q13362-2 30-380)
Experiment: ITC; B56γ1 in the cell at 0.03 mmol/L, BubR1 protein or peptide at 0.7 mmol/L injected (20 x 1.5 µL); room temperature; 20 mmol/L Tris-HCl pH 8.0, 200 mmol/L NaCl; one-site model
Settings: both partners purified

| Kd | dH | stoichiometry N | Binder |
| --- | --- | --- | --- |
| 2.27 ± 0.37 µM | -119 ± 3.47 kJ/mol | 1.02 ± 0.02 | human BubR1(647–720)-3D (S670D/S676D/T680D) (domain or fragment, also called BubR1-3D; source: E. coli BL21 (DE3), purified (Glutathione Sepharose 4B, TEV cleavage, Hitrap Q HP)) KTSEDQQTACGTIYSQTLSIKKLDPIIEDDREADHSSGFSGSSASVASTSSIKCLQIPEKLELTNETSENPTQS |
| 10.6 ± 1.72 µM | -40.8 ± 2.68 kJ/mol | 1.02 ± 0.05 | human BubR1(647–720; E678A/T680A/H681A) (domain or fragment, also called BubR1-AAAA; source: E. coli BL21 (DE3), purified the same way as wild type) KTSEDQQTACGTIYSQTLSIKKLSPIIEDSRAAAASSGFSGSSASVASTSSIKCLQIPEKLELTNETSENPTQS |
